Target: Human ACE2-hIgG1Fc (human) (UniProt Q9BYF1)
Test: SPR

Sequence of Human ACE2-hIgG1Fc (human) (Q9BYF1 18-740): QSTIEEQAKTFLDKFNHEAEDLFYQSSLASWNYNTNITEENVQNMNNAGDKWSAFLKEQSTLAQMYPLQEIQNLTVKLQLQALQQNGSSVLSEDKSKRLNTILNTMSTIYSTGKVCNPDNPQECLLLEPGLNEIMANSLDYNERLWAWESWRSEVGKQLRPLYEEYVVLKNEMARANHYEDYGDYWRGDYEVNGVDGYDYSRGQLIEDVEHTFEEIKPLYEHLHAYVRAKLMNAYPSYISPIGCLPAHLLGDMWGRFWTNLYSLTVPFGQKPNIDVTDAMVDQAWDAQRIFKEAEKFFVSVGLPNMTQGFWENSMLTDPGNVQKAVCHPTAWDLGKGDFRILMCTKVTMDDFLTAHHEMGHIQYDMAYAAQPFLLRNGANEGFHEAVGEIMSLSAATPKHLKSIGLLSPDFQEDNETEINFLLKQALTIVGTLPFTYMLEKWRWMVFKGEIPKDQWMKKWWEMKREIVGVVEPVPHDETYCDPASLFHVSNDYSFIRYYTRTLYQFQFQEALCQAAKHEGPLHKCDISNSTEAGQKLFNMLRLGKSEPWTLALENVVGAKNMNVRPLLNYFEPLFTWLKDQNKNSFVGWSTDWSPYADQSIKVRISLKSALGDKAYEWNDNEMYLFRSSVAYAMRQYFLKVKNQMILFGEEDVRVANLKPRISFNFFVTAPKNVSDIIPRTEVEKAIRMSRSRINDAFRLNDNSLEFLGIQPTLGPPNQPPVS

Wuhan RBD
Kd: 7.3 nM
koff: 0.0051 s⁻¹
